Measurements: publication PMC8881100, “Biochemical and Molecular Dynamics Study of a Novel GH 43 α-L-Arabinofuranosidase/β-Xylosidase From Caldicellulosiruptor saccharolyticus DSM8903” (Frontiers in Bioengineering and Biotechnology, 2022)

Substrate: O=[N+]([O-])c1ccc(O[C@@H]2O[C@@H](CO)[C@H](O)[C@H]2O)cc1
Experiment: purified protein
Format: biochemical, Caldicellulosiruptor saccharolyticus
Conditions: citric acid phosphate buffer pH 6, 70°C, 0.5 to 3.5 mM substrate

B1: CAX43 (GH43 α-L-arabinofuranosidase/β-xylosidase) (Caldicellulosiruptor saccharolyticus DSM 8903) (protein)
chain: MIPTLWDPNVDEERYKNPIIHADYSDPDVIRVGSDYFLVASSFNCVPGLPILHSRDLINWKIVNYAVERLPSPEYDTPQIGKGIWAPAIRYHEEKFYIYFSMPDDGIYVCYTDDPFGKWSDIHLVKAAKGWIDPCPFWDEDGNAYLVNAFAKSRIGFNSKLCVSRLSADGLRVLDEGKIVFDGAKTQPTIEGPKLYKRNGYYYIFAPAGGVKFGWQTVLRSKDIYGPYEEKIVLHQGKTKINGPHQGAWVETEKGEHWFVHFQDRGPYGRVVHLQPMRWEDNWPVIGVDIDGDGIGEPVEEYRKPNTNYKNEYDFYLECSDHFDKPQISLQWQWHANPQDNWYSLEKRKSYLRLYAVGNLTNNNKVKSIFFMPNLLLQKIPAPEFIAIVKLEVNFNKEGSYAGIIMSGSRYSSIGIKRGQKKLSLVQVLGDVKEDVIENTVAKMPIETSQVFLKISVKEGAVCKFSFSFDGKKFTDFGTEFIPQEAIWVGSKIGLFCINTSGKNGVIQSDYADFDYFKIENFRKEDEC
notes: C-terminal His6 tag; pEASY blunt E2, E. coli BL21 (C43); Ni-NTA purified
Protein B1 has a Km of 1071 µM and a kcat of 234.674 s⁻¹.
